The target in one test is FcγRIIIA (CD16) (human) (UniProt P08637). Briefly: cell-based or functional assay.
In test [1] the target is CD20 on Daudi lymphoma cells (UniProt P11836). Briefly: flow cytometry on Daudi cells, goat anti-human Fc AF647; matched Fc density chosen for the comparison of C3b deposition, concentration not given.
Chain of CD20 on Daudi lymphoma cells (P11836 whole entry): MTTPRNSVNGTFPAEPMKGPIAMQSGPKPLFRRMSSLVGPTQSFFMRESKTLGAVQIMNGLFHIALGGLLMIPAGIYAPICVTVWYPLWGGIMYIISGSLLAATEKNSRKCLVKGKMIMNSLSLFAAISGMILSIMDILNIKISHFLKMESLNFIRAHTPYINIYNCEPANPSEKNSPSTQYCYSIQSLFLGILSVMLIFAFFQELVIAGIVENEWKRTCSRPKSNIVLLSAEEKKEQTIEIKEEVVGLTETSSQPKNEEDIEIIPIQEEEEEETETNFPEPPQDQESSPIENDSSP

Chain of FcγRIIIA (CD16) (human) (P08637 17-254): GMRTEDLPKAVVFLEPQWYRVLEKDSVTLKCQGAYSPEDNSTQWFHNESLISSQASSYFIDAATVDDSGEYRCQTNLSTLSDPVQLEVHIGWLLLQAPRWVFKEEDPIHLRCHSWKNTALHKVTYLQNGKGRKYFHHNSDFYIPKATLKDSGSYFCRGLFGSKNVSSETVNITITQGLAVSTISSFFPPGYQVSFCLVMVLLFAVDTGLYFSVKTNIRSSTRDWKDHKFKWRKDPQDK

Take MabThera (rituximab, RTX) (antibody): in the test with FcγRIIIA (CD16) (human), the percentage of phagocytic macrophages, Daudi targets, absence of complement (ADCP) turned out to be 8.6% and the percentage of phagocytic macrophages, Daudi targets, presence of complement (ADCP+CDCP) came to 24.1%. In test [1], this substance registered an MFI anti-Fc of 12200 MFI.

The values above are taken from US20240360189A1.
